Consider 3 molecules from PMC10397247.

Changes are numbered by the printed parent chain.

One test has as its target T1, P6SC2.
T1 chain: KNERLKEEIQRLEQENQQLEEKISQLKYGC
Put plainly: two-hybrid library CC1.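 Note: natural log of median RNA to DNA barcode read ratio; higher means stronger binding.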

A further test has as its target T2, P6mS.
T2 chain: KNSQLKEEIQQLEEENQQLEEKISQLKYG
In words: two-hybrid library CC1.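 Note: natural log of median RNA to DNA barcode read ratio; higher means stronger binding.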 Conditions: mean of both orientations.

A further test concerns the target T3, P7.
T3 chain: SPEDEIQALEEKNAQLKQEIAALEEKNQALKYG
Put plainly: two-hybrid library CC1.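 Note: natural log of median RNA to DNA barcode read ratio; higher means stronger binding.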 The note with it: mean of both orientations.

In the next test the target is T4, P7mS.
T4 chain: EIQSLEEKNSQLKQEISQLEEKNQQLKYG
Put plainly: two-hybrid library CC1.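 Note: natural log of median RNA to DNA barcode read ratio; higher means stronger binding.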 The note with it: mean of both orientations.

In a further test the target is T5, P8.
T5 chain: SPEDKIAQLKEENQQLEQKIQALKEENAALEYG
Put plainly: two-hybrid library CC1.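 Note: natural log of median RNA to DNA barcode read ratio; higher means stronger binding.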 Conditions: mean of both orientations.

Another test addresses T6, P8mS.
T6 chain: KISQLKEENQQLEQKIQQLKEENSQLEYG
In words: two-hybrid library CC1.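 Note: natural log of median RNA to DNA barcode read ratio; higher means stronger binding.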 Conditions: mean of both orientations.

In a further test the target is T7, P9.
T7 chain: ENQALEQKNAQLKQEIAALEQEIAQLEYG
In words: two-hybrid library CC1. The note with it: mean of both orientations.

In the next test the target is T8, 4H2553-AA.
T8 chain: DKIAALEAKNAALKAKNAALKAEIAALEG
Put plainly: two-hybrid library CCmax.

Another test addresses T9, 4H2611-AA.
T9 chain: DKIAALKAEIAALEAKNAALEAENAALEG
In words: two-hybrid library CCmax. The note with it: mean of both orientations.

A further test concerns the target T10, 4H2620-AA.
T10 chain: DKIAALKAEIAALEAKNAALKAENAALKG
In words: two-hybrid library CCmax. The note with it: mean of both orientations.

The target of the next test is T11, 4H2648-AA.
T11 chain: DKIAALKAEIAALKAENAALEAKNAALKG
Put plainly: two-hybrid library CCmax. The note with it: mean of both orientations.

The target of the next test is T12, 4H2907-AA.
T12 chain: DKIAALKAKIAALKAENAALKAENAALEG
In words: two-hybrid library CCmax. The note with it: mean of both orientations.

The target in another test is T13, 4H3056-AA.
T13 chain: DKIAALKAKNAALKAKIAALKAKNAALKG
In words: two-hybrid library CCmax. Conditions: mean of both orientations.

The target of the next test is T14, 4H3133-AA.
T14 chain: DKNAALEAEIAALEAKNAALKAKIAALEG
In words: two-hybrid library CCmax. Conditions: mean of both orientations.

The target in another test is T15, 4H3162-AA.
T15 chain: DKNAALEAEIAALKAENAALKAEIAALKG
In words: two-hybrid library CCmax. Conditions: mean of both orientations.

The next test deals with T16, 4H32-AA.
T16 chain: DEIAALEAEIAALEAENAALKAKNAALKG
In words: two-hybrid library CCmax. The note with it: mean of both orientations.

The next test has as its target T17, 4H3378-AA.
T17 chain: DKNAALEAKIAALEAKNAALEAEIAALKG
Put plainly: two-hybrid library CCmax. The note with it: mean of both orientations.

Another test deals with T18, 4H340-AA.
T18 chain: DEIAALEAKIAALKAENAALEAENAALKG
Put plainly: two-hybrid library CCmax. Conditions: mean of both orientations.

The next test addresses T19, 4H3413-AA.
T19 chain: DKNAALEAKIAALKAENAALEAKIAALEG
In words: two-hybrid library CCmax. Conditions: mean of both orientations.

In another test the target is T20, 4H3588-AA.
T20 chain: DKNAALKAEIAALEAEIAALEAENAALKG
In words: two-hybrid library CCmax. The note with it: mean of both orientations.

The target in the next test is T21, 4H3606-AA.
T21 chain: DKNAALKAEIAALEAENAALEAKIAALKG
In words: two-hybrid library CCmax. The note with it: mean of both orientations.

The next test deals with T22, 4H3631-AA.
T22 chain: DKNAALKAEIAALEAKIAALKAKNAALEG
In words: two-hybrid library CCmax. The note with it: mean of both orientations.

For another test, the target named is T23, 4H3697-AA.
T23 chain: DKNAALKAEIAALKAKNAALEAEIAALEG
Put plainly: two-hybrid library CCmax. The note with it: mean of both orientations.

For a further test, the target named is T24, 4H3718-AA.
T24 chain: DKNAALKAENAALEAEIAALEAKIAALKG
In words: two-hybrid library CCmax. The note with it: mean of both orientations.

Another test deals with T25, 4H384-AA.
T25 chain: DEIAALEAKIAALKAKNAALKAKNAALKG
In words: two-hybrid library CCmax. The note with it: mean of both orientations.

The target in the next test is T26, 4H3865-AA.
T26 chain: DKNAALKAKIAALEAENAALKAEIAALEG
In words: two-hybrid library CCmax. The note with it: mean of both orientations.

For a further test, the target named is T27, 4H697-AA.
T27 chain: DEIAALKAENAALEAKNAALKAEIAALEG
Put plainly: two-hybrid library CCmax. Conditions: mean of both orientations.

The next test concerns the target T28, 4H982-AA.
T28 chain: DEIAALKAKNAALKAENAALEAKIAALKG
In words: two-hybrid library CCmax. The note with it: mean of both orientations.

The target of a further test is T29, 4H3354-bN.
T29 chain: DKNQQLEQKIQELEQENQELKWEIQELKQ
Put plainly: two-hybrid library CCNG1.

Another test has as its target T30, 4H338-bN.
T30 chain: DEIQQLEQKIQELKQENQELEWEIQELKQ
In words: two-hybrid library CCNG1.

Another test has as its target T31, 4H3427-bN.
T31 chain: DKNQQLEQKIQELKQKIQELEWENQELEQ
Put plainly: two-hybrid library CCNG1.

The next test concerns the target T32, 4H3782-bN.
T32 chain: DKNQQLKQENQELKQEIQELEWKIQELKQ
In words: two-hybrid library CCNG1.

A further test addresses T33, 4H3855-bN.
T33 chain: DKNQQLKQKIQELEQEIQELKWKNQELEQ
In words: two-hybrid library CCNG1.

A further test addresses T34, 4H4001-bN.
T34 chain: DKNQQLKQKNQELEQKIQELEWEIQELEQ
Put plainly: two-hybrid library CCNG1.

For a further test, the target named is T35, 4H454-bN.
T35 chain: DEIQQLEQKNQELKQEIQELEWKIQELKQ
In words: two-hybrid library CCNG1.

A further test has as its target T36, 4H568-bN.
T36 chain: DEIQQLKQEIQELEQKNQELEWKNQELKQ
Put plainly: two-hybrid library CCNG1.

Another test deals with T37, 4H607-bN.
T37 chain: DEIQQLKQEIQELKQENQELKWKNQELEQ
In words: two-hybrid library CCNG1.

In the next test the target is T38, 4H687-bN.
T38 chain: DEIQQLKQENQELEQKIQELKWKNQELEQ
In words: two-hybrid library CCNG1.

Another test addresses T39, 4H717-bN.
T39 chain: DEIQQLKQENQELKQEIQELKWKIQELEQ
Put plainly: two-hybrid library CCNG1.

A further test deals with T40, 4H72-bN.
T40 chain: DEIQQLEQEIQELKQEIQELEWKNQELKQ
Put plainly: two-hybrid library CCNG1.

The target of the next test is T41, 4H754-bN.
T41 chain: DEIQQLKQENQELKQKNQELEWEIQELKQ
In words: two-hybrid library CCNG1.

The target of a further test is T42, 4H797-bN.
T42 chain: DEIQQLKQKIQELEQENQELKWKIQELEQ
Put plainly: two-hybrid library CCNG1.

Another test deals with T43, 4H883-bN.
T43 chain: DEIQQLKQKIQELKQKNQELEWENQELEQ
In words: two-hybrid library CCNG1.

For the next test, the target named is T44, 4H908-bN.
T44 chain: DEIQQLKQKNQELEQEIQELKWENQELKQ
Put plainly: two-hybrid library CCNG1.

Another test addresses T45, 4H918-bN.
T45 chain: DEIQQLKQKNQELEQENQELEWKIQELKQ
Put plainly: two-hybrid library CCNG1.

For the next test, the target named is T46, 4H953-bN.
T46 chain: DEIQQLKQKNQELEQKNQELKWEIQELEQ
Put plainly: two-hybrid library CCNG1.

Another test addresses T47, 4H967-bN.
T47 chain: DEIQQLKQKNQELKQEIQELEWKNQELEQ
In words: two-hybrid library CCNG1.

B1: P6SC2 (peptide)
chain: T1 chain
As to B1, the interaction score is -2.13 with P6SC2; -2.75 with P6mS; 0.0928 with P7; -1.75 with P7mS; -1.84 with P8; -2.54 in the test with P8mS. Moreover, in the test with P9, the interaction score was -1.47.

B2: 4H2553-AA (peptide)
chain: DKIAALEAKNAALKAKNAALKAEIAALEG
Consider B2, for which the interaction score was -1.66 with 4H2553-AA; -1.68 in the test with 4H2611-AA; -1.7 with 4H2620-AA; -0.498 with 4H2648-AA; -1.73 with 4H2907-AA; -1.68 with 4H3056-AA. In addition, the interaction score with 4H3133-AA was -2.05; with 4H3162-AA, -1.5; in the test with 4H32-AA it was -0.574; in the test with 4H3378-AA, -1.98; with 4H340-AA, -0.687; in the test with 4H3413-AA, -1.58. Besides, the interaction score with 4H3588-AA was -1.93; in the test with 4H3606-AA, 1.86; with 4H3631-AA it was -1.73; with 4H3697-AA, -2.21; in the test with 4H3718-AA, 1.12; with 4H384-AA it was -1.95. Moreover, the results for the interaction score with 4H3865-AA, in the test with 4H697-AA and with 4H982-AA were -1.79, -1 and 1.15, respectively.

B3: 4H3354-bN (peptide)
chain: DKNQQLEQKIQELEQENQELKWEIQELKQ
In the case of B3, the interaction score in the test with 4H3354-bN was 1.43; with 4H338-bN it was -0.511; in the test with 4H3427-bN it was -0.405; with 4H3782-bN, -1.06; with 4H3855-bN it was -0.269; with 4H4001-bN, -0.318. The interaction score is -0.726 with 4H454-bN; -0.364 in the test with 4H568-bN; -0.0582 with 4H607-bN; -1.25 with 4H687-bN; -0.894 with 4H717-bN; -1.09 in the test with 4H72-bN. Moreover, the interaction score is -0.289 with 4H754-bN; -0.685 in the test with 4H797-bN; -0.871 with 4H883-bN; -0.992 in the test with 4H908-bN; -0.605 with 4H918-bN; -0.946 in the test with 4H953-bN. In the test with 4H967-bN, this molecule showed an interaction score of -1.24.
